Assay results reported in article PMC7954794, “Protein context shapes the specificity of SH3 domain-mediated interactions in vivo” (Nature Communications, 2021).

B1: SHO1 (protein, UniProt P40073 1-367, looked up)
High osmolarity signaling …: MSISSKIRPTPRKPSRMATDHSFKMKKFYADPFAISSISLAIVSWVIAIGGSISSASTNESFPRFTWWGIVYQFLIICSLMLFYCFDLVDHYRIFITTSIAVAFVYNTNSATNLVYADGPKKAAASAGVILLSIINLIWILYYGGDNASPTNRWIDSFSIKGIRPSPLENSLHRARRRGNRNTTPYQNNVYNDAIRDSGYATQFDGYPQQQPSHTNYVSSTALAGFENTQPNTSEAVNLHLNTLQQRINSASNAKETNDNSNNQTNTNIGNTFDTDFSNGNTETTMGDTLGLYSDIGDDNFIYKAKALYPYDADDDDAYEISFEQNEILQVSDIEGRWWKARRANGETGIIPSNYVQLIDGPEEMHR
B2: YSC84 (protein, UniProt P32793 1-468, looked up)
Protein YSC84: MGINNPIPRSLKSETKKAAKVLRSFVKPNQVFGADQVIPPYVLKRAKGLAIITVLKAGFLFSGRAGSGVIVARLKDGTWSAPSAIAMAGAGAGGMVGVELTDFVFILNSEEAVRSFSEFGTITLGGNVSVSAGPLGRSAEAAASASTGGVSAVFAYSKSKGLFAGVSVEGSAILERREANRKFYGDNCTSKMILSGRVKVPPAADPLLRILESRAFNFTRHDHDDNASGDDFYDDGQYSDNTSHYYDDIPDSFDSTDESSTRPNTRSSRRRGMSLGSRSRYDDDYDDDGYGRGRGYGDFDSEDEDYDYGRSPNRNSSRNRGPQIDRGTKPRANTRWEDDLYDRDTEYSRPNHSGRDYDNTRGNRRGYGRERGYSLGHGPTHPSNMSNVDDLSHKMSKTGLGNESTATNSATPTAVALYNFAGEQPGDLAFKKGDVITILKKSDSQNDWWTGRTNGKEGIFPANYVRVS

System: Abp1 PPIs
Experiment: DHFR-PCA of Abp1 SH3-swapped baits (Fig. 2B-D, S2C, S2F);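 for Protein-protein interaction distance between Abp1 SH3-swapped baits, to ABP1: Euclidean distance between DHFR-PCA score profiles of the baits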;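 for Protein-protein interaction distance between Abp1 SH3-swapped baits, to BEM1-2: Euclidean distance between DHFR-PCA score profiles of the baits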;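 for Protein-protein interaction distance between Abp1 SH3-swapped baits, to BOI1: Euclidean distance between DHFR-PCA score profiles of the baits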;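 for Protein-protein interaction distance between Abp1 SH3-swapped baits, to BZZ1-1: Euclidean distance between DHFR-PCA score profiles of the baits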
Format: cell-based, Saccharomyces cerevisiae
Details: for Protein-protein interaction distance between Abp1 SH3-swapped baits, to ABP1: Abp1 bait with swapped SH3, distance to bait with ABP1 SH3; for Protein-protein interaction distance between Abp1 SH3-swapped baits, to ABP1 / Protein-protein interaction distance between Abp1 SH3-swapped baits, to BBC1 / Protein-protein interaction distance between Abp1 SH3-swapped baits, to BEM1-1 / Protein-protein interaction distance between Abp1 SH3-swapped baits, to BEM1-2 / Protein-protein interaction distance between Abp1 SH3-swapped baits, to BOI1 / Protein-protein interaction distance between Abp1 SH3-swapped baits, to BOI2 / Protein-protein interaction distance between Abp1 SH3-swapped baits, to BUD14 / Protein-protein interaction distance between Abp1 SH3-swapped baits, to BZZ1-1 / Protein-protein interaction distance between Abp1 SH3-swapped baits, to BZZ1-2 / Protein-protein interaction distance between Abp1 SH3-swapped baits, to CDC25 / Protein-protein interaction distance between Abp1 SH3-swapped baits, to CTTN / Protein-protein interaction distance between Abp1 SH3-swapped baits, to CYK3 / Protein-protein interaction distance between Abp1 SH3-swapped baits, to DBNL / Protein-protein interaction distance between Abp1 SH3-swapped baits, to FUS1 / Protein-protein interaction distance between Abp1 SH3-swapped baits, to HCLS1 / Protein-protein interaction distance between Abp1 SH3-swapped baits, to HOF1 / Protein-protein interaction distance between Abp1 SH3-swapped baits, to HSE1 / Protein-protein interaction distance between Abp1 SH3-swapped baits, to LSB1 / Protein-protein interaction distance between Abp1 SH3-swapped baits, to LSB3 / Protein-protein interaction distance between Abp1 SH3-swapped baits, to MYO3 / Protein-protein interaction distance between Abp1 SH3-swapped baits, to MYO5 / Protein-protein interaction distance between Abp1 SH3-swapped baits, to NBP2 / Protein-protein interaction distance between Abp1 SH3-swapped baits, to PEX13 / Protein-protein interaction distance between Abp1 SH3-swapped baits, to PIN3 / Protein-protein interaction distance between Abp1 SH3-swapped baits, to RVS167 / Protein-protein interaction distance between Abp1 SH3-swapped baits, to SDC25 / Protein-protein interaction distance between Abp1 SH3-swapped baits, to SHO1 / Protein-protein interaction distance between Abp1 SH3-swapped baits, to SLA1-1 / Protein-protein interaction distance between Abp1 SH3-swapped baits, to SLA1-2 / Protein-protein interaction distance between Abp1 SH3-swapped baits, to SLA1-3 / Protein-protein interaction distance between Abp1 SH3-swapped baits, to YSC84: sheet Fig2C; for Protein-protein interaction distance between Abp1 SH3-swapped baits, to BBC1: distance to Abp1 bait with BBC1 SH3; for Protein-protein interaction distance between Abp1 SH3-swapped baits, to BEM1-1: distance to Abp1 bait with BEM1-1 SH3; for Protein-protein interaction distance between Abp1 SH3-swapped baits, to BEM1-2: distance to Abp1 bait with BEM1-2 SH3; for Protein-protein interaction distance between Abp1 SH3-swapped baits, to BOI1: distance to Abp1 bait with BOI1 SH3; for Protein-protein interaction distance between Abp1 SH3-swapped baits, to BOI2: distance to Abp1 bait with BOI2 SH3; for Protein-protein interaction distance between Abp1 SH3-swapped baits, to BUD14: distance to Abp1 bait with BUD14 SH3; for Protein-protein interaction distance between Abp1 SH3-swapped baits, to BZZ1-1: distance to Abp1 bait with BZZ1-1 SH3; for Protein-protein interaction distance between Abp1 SH3-swapped baits, to BZZ1-2: distance to Abp1 bait with BZZ1-2 SH3; for Protein-protein interaction distance between Abp1 SH3-swapped baits, to CDC25: distance to Abp1 bait with CDC25 SH3; for Protein-protein interaction distance between Abp1 SH3-swapped baits, to CTTN: distance to Abp1 bait with CTTN SH3; for Protein-protein interaction distance between Abp1 SH3-swapped baits, to CYK3: distance to Abp1 bait with CYK3 SH3; for Protein-protein interaction distance between Abp1 SH3-swapped baits, to DBNL: distance to Abp1 bait with DBNL SH3; for Protein-protein interaction distance between Abp1 SH3-swapped baits, to FUS1: distance to Abp1 bait with FUS1 SH3; for Protein-protein interaction distance between Abp1 SH3-swapped baits, to HCLS1: distance to Abp1 bait with HCLS1 SH3; for Protein-protein interaction distance between Abp1 SH3-swapped baits, to HOF1: distance to Abp1 bait with HOF1 SH3; for Protein-protein interaction distance between Abp1 SH3-swapped baits, to HSE1: distance to Abp1 bait with HSE1 SH3; for Protein-protein interaction distance between Abp1 SH3-swapped baits, to LSB1: distance to Abp1 bait with LSB1 SH3; for Protein-protein interaction distance between Abp1 SH3-swapped baits, to LSB3: distance to Abp1 bait with LSB3 SH3; for Protein-protein interaction distance between Abp1 SH3-swapped baits, to MYO3: distance to Abp1 bait with MYO3 SH3; for Protein-protein interaction distance between Abp1 SH3-swapped baits, to MYO5: distance to Abp1 bait with MYO5 SH3; for Protein-protein interaction distance between Abp1 SH3-swapped baits, to NBP2: distance to Abp1 bait with NBP2 SH3; for Protein-protein interaction distance between Abp1 SH3-swapped baits, to PEX13: distance to Abp1 bait with PEX13 SH3; for Protein-protein interaction distance between Abp1 SH3-swapped baits, to PIN3: distance to Abp1 bait with PIN3 SH3; for Protein-protein interaction distance between Abp1 SH3-swapped baits, to RVS167: distance to Abp1 bait with RVS167 SH3; for Protein-protein interaction distance between Abp1 SH3-swapped baits, to SDC25: distance to Abp1 bait with SDC25 SH3; for Protein-protein interaction distance between Abp1 SH3-swapped baits, to SHO1: distance to Abp1 bait with SHO1 SH3; for Protein-protein interaction distance between Abp1 SH3-swapped baits, to SLA1-1: distance to Abp1 bait with SLA1-1 SH3; for Protein-protein interaction distance between Abp1 SH3-swapped baits, to SLA1-2: distance to Abp1 bait with SLA1-2 SH3; for Protein-protein interaction distance between Abp1 SH3-swapped baits, to SLA1-3: distance to Abp1 bait with SLA1-3 SH3; for Protein-protein interaction distance between Abp1 SH3-swapped baits, to YSC84: distance to Abp1 bait with YSC84 SH3
How it was run: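 Yeast DHFR-PCA in which Abp1 baits, carrying their SH3 replaced by CRISPR–Cas9 with one of 27 yeast SH3s or human CTTN, HCLS1 or DBNL SH3s, were mated against 575 SH3-associated DHFR F[3] preys plus 40 negative controls. Four tests were run per PPI. Diploids were selected twice (48 h, 30 °C), then grown 4 days on PCA selection media.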

[1] = number of PPIs, difference, Abp1 SH3-swapped with the listed SH3, Fig2D,S2F

| Molecule | Protein-protein interaction distance between Abp1 SH3-swapped baits, to ABP1 | Protein-protein interaction distance between Abp1 SH3-swapped baits, to BBC1 | Protein-protein interaction distance between Abp1 SH3-swapped baits, to BEM1-1 | Protein-protein interaction distance between Abp1 SH3-swapped baits, to BEM1-2 | Protein-protein interaction distance between Abp1 SH3-swapped baits, to BOI1 | Protein-protein interaction distance between Abp1 SH3-swapped baits, to BOI2 | Protein-protein interaction distance between Abp1 SH3-swapped baits, to BUD14 | Protein-protein interaction distance between Abp1 SH3-swapped baits, to BZZ1-1 | Protein-protein interaction distance between Abp1 SH3-swapped baits, to BZZ1-2 | Protein-protein interaction distance between Abp1 SH3-swapped baits, to CDC25 | Protein-protein interaction distance between Abp1 SH3-swapped baits, to CTTN | Protein-protein interaction distance between Abp1 SH3-swapped baits, to CYK3 | Protein-protein interaction distance between Abp1 SH3-swapped baits, to DBNL | Protein-protein interaction distance between Abp1 SH3-swapped baits, to FUS1 | Protein-protein interaction distance between Abp1 SH3-swapped baits, to HCLS1 | Protein-protein interaction distance between Abp1 SH3-swapped baits, to HOF1 | Protein-protein interaction distance between Abp1 SH3-swapped baits, to HSE1 | Protein-protein interaction distance between Abp1 SH3-swapped baits, to LSB1 | Protein-protein interaction distance between Abp1 SH3-swapped baits, to LSB3 | Protein-protein interaction distance between Abp1 SH3-swapped baits, to MYO3 | other results |
| --- | --- | --- | --- | --- | --- | --- | --- | --- | --- | --- | --- | --- | --- | --- | --- | --- | --- | --- | --- | --- | --- |
| B1 | 8.989 | 7.412 | 10.91 | 30.43 | 8.152 | 11.77 | 14.66 | 4.878 | 7.862 | 24.02 | 9.013 | 24.75 | 4.441 | 16.07 | 8.302 | 29.05 | 5.64 | 11.57 | 11.76 | 10.66 | Protein-protein interaction distance between Abp1 SH3-swapped baits, to MYO5: 10.26; Protein-protein interaction distance between Abp1 SH3-swapped baits, to NBP2: 13.02; Protein-protein interaction distance between Abp1 SH3-swapped baits, to PEX13: 8.672; Protein-protein interaction distance between Abp1 SH3-swapped baits, to PIN3: 9.004; Protein-protein interaction distance between Abp1 SH3-swapped baits, to RVS167: 6.815; Protein-protein interaction distance between Abp1 SH3-swapped baits, to SDC25: 31.28; Protein-protein interaction distance between Abp1 SH3-swapped baits, to SHO1: 0.00; Protein-protein interaction distance between Abp1 SH3-swapped baits, to SLA1-1: 26.8; Protein-protein interaction distance between Abp1 SH3-swapped baits, to SLA1-2: 16.55; Protein-protein interaction distance between Abp1 SH3-swapped baits, to SLA1-3: 11.51; Protein-protein interaction distance between Abp1 SH3-swapped baits, to YSC84: 12.33; PPIs gained by Abp1 - SH3-dependent PPIs gained by Abp1 [1]: 3; SH3-dependent PPIs - SH3-dependent PPIs gained by Abp1 [1]: 1; SH3-dependent PPIs gained by Abp1 (number of PPIs, Abp1 SH3-swapped with the listed SH3, DHFR-PCA, Fig2D,S2F): 1 |
| B2 | 13.97 | 14.14 | 19.6 | 36.26 | 16.61 | 20.04 | 22.52 | 11.3 | 16.58 | 30.76 | 17.19 | 31.42 | 11.44 | 23.88 | 11.3 | 34.92 | 12.83 | 3.911 | 3.425 | 9.995 | Protein-protein interaction distance between Abp1 SH3-swapped baits, to MYO5: 8.128; Protein-protein interaction distance between Abp1 SH3-swapped baits, to NBP2: 21.76; Protein-protein interaction distance between Abp1 SH3-swapped baits, to PEX13: 7.848; Protein-protein interaction distance between Abp1 SH3-swapped baits, to PIN3: 5.862; Protein-protein interaction distance between Abp1 SH3-swapped baits, to RVS167: 8.283; Protein-protein interaction distance between Abp1 SH3-swapped baits, to SDC25: 36.86; Protein-protein interaction distance between Abp1 SH3-swapped baits, to SHO1: 12.33; Protein-protein interaction distance between Abp1 SH3-swapped baits, to SLA1-1: 33.18; Protein-protein interaction distance between Abp1 SH3-swapped baits, to SLA1-2: 24.17; Protein-protein interaction distance between Abp1 SH3-swapped baits, to SLA1-3: 6.014; Protein-protein interaction distance between Abp1 SH3-swapped baits, to YSC84: 0.00 |
